The record followed here is patent publication US20220195497A1 (ROCHE DIAGNOSTICS OPERATIONS, published 2022).

Experiment [1] concerns the target T1, hTK (UniProt P04183 1-234).
T1 sequence (looked up): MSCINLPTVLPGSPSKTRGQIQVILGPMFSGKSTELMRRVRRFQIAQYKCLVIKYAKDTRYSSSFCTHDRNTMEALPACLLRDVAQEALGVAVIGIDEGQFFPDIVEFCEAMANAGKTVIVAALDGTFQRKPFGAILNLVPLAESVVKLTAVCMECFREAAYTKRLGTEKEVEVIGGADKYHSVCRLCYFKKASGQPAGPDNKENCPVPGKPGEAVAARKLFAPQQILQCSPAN
Kind of experiment: SPR sandwich matrix on hTK; row = primary antibody; secondary antibody (competitor): 4H4-IgG.

Experiment [2] has as its target T1, hTK. The experiment is described as follows: SPR sandwich matrix on hTK; row = primary antibody; secondary antibody (competitor): Antibody A.
For experiment [3], the target named is T1, hTK. Kind of experiment: SPR sandwich matrix on hTK; row = primary antibody; secondary antibody (competitor): 6C6-IgG.
Experiment [4] has as its target T1, hTK. The experiment is described as follows: SPR sandwich matrix on hTK; row = primary antibody; secondary antibody (competitor): 23C11-IgG.

B1: 4H4-IgG (antibody, V domains shown)
VH: CQSLEESGGGLVQPEGSLTLTCTASGFSFSSGYDMCWVRQTPGKGLEWIACISVDSDGVTYYASWAKGRFTISKTSSTTVTLQMTSLTAADTATYFCARGYESSSGVYIPYFTLWGPGTLVTVSS
VL: DIVLTQTPASVEAAVGGTVTIKCQASQSIYSYLAWYQHKPGQPPKLLIYKASTLASGVPSRFKGSGSGTEYTLTISDLECADAATYYCQHYYYSSTSGGGVFGGGTEVVVK
As to B1, the “Molar Ratio Epitope Accessibility (MREA)” value was determined as 0 with hTK [1], 0.2 with hTK [2], 0 in the experiment with hTK [3] and 0 with hTK [4].

B2: 23C11-IgG (antibody, V domains shown)
VH: CQSLEESGGRLVTPGTPLTLTCTASGFSLSNYYMSWVRQAPGKGLEWIGIIYGDDNTYCANWTKGRFTISKTSTTVDLTITSPTTEDTATYFCARGPDYIAAKMDIWGPGTLVTVSL
VL: DVVMTQTPASVEAAVGGTVTIKCQASQSISGYLSWYQQKPGQRPKLLIYRASTLESGVPSRFKGSGSGTEFTLTISDLECADAATYYCQCTYGSSTFSSYGNAFGGGTEVVVK
As to B2, the “Molar Ratio Epitope Accessibility (MREA)” value with hTK [1] was 0; in the experiment with hTK [2], 0.2; with hTK [3], 0; with hTK [4], 0.

B3: 6C6-IgG (antibody, V domains shown)
VH: QEQLEESGGDLVKPEGSLTLTCTASRFSFSSSYWICWVRQAPGKGLEWIACIYAGDSGSSYYASWAKGRFTVSKTSSTTVTLQTTSLTAADTATYFCARASVGAAYDYFALWGPGTLVTVSS
VL: ALVMTQTPASVEAAMGGTVTIKCQASEDVSSHLAWYQQRPGQPPKLLIYGASDLASGVPSRFTGSGSGTQFTLAISDLECADAATYYCQGYYYISDSPYVFGGGTEVVVK
As for B3, the “Molar Ratio Epitope Accessibility (MREA)” value in the experiment with hTK [1] is 0; in the experiment with hTK [2], 0.4; with hTK [3] it was 0; with hTK [4], 0.
